Assay results published in patent US20060167227A1.

How the values were obtained:
[1] = target: tau monoclonal antibody (Example 5, FIG. 5); test: competitive ELISA
[2] = target: tau monoclonal antibody (Example 5, FIG. 5); test: competitive ELISA; printed as apparent affinity = antigen concentration for 50% competition with prototype tau type IA

Substance	fold decrease in affinity against prototype tau type IA (SEQ ID NO:1) [1]	IC50 [2]
deletion mutant SEQ ID NO: 21 (268-333,R4;del 239-267) (from UniProt O02828 288-353)	1000 fold	
prototype tau type IA (SEQ ID NO:1) (239-333,R4) (from UniProt O02828 259-353)		10 nM
